The values below are quoted from earlier work in article PMC3670934.

Among the targets are CCL26 (Homo sapiens) (UniProt Q9Y258); CCL24 (Homo sapiens) (UniProt O00175); CCL11 (Homo sapiens) (UniProt P51671).

CCR3, sequence (P51677 whole entry): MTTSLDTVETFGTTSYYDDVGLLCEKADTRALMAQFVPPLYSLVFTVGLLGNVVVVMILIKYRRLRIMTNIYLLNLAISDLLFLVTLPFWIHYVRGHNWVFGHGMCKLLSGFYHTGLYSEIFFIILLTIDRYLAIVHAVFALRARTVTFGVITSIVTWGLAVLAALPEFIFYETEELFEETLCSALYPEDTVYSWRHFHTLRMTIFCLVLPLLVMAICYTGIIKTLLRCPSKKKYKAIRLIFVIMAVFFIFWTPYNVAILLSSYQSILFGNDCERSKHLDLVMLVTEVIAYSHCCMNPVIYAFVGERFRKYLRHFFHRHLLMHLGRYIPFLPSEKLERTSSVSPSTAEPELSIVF
CCL11 (Homo sapiens), sequence (P51671 24-97): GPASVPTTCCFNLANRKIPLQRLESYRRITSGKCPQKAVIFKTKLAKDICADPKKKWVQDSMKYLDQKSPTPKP
CCL26 (Homo sapiens), sequence (Q9Y258 24-94): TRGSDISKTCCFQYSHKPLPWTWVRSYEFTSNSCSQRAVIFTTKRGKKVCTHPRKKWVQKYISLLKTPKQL
CCL24 (Homo sapiens), sequence (O00175 27-119): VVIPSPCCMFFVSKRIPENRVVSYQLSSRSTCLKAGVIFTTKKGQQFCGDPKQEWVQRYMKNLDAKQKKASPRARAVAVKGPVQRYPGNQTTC

With CCR3 (from UniProt P51677), the Kd (usually the concentration at which binding is half-saturated) is 0.9 nM in the series with CCL26 (Homo sapiens), 0.6 nM with CCL24 (Homo sapiens) and 0.52 nM with CCL11 (Homo sapiens).
